Sequences and labels used below:
B1: glmS ribozyme (parent)
chain: AUAAAAGCGCCAGAACUACAGAAAUGUAGUUGACGAGGAGGAGGUUUAUCGAAUUUUCGGCGGAUGCCUCCAAA

Common to all, as to details: with glucosamine-6-phosphate
Variants of B1 are the subject of data set [1]. Kind of data set: kcat; higher = faster cleavage; RNA array. Summed up: (§1)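 Glucosamine-6-phosphate in HEPES/KCl/Mg(OAc)2 buffer, at 40 μM to 10 mM, was flowed over barcoded ribozyme variants transcribed in situ by E. coli RNA polymerase on sequenced MiSeq chips. Tracking was through a hybridised Cy3 probe at 37 °C. kobs, kcat and KM came from exponential decay fits and weighted Michaelis–Menten fits of normalised per-tile medians.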

Variants of B1 are the subject of data set [2]. Put plainly: self-cleavage kobs at 640 uM GlcN6P; higher = faster cleavage; RNA array. In outline: as §1
In data set [3] the parent is B1. Kind of data set: self-cleavage kobs at 2500 uM GlcN6P; higher = faster cleavage; RNA array. In outline:
as §1

Data set [4] covers variants of B1. Kind of data set: self-cleavage kobs at 10000 uM GlcN6P; higher = faster cleavage; RNA array. In outline: as §1
The variants in data set [5] derive from B1. Put plainly: KM; higher = weaker cofactor use; RNA array. Summed up:
as §1

In data set [6] the parent is B1. Kind of data set: self-cleavage kobs at 40 uM GlcN6P; higher = faster cleavage; RNA array. In outline: as §1
Data set [7] covers variants of B1. Kind of data set: self-cleavage kobs at 160 uM GlcN6P; higher = faster cleavage; RNA array. In outline: as §1

± gives the standard error. For some assays here: Variants at the floor of the assay were thinned out.

Broadly, the kcat is the number of substrate molecules converted per active site and unit of time at saturation. By KM is commonly meant the substrate concentration at which the rate is half of its maximum.

In the case of AUAAAAGCGCCAUAACUACAGAAAUGUAGUUGACGAGGAUGAGGUUUAUCGAAUUUUCGGCGGAUGCCUCCAAA [G13U G40U], in data set [1], the turnover number (kcat) worked out at 7.77e-05 ± 1.2e-05 s⁻¹. The “self-cleavage kobs at 640 uM GlcN6P” value in data set [2] is 3.55e-05 ± 9.5e-06 s⁻¹. In addition, the “self-cleavage kobs at 2500 uM GlcN6P” value in data set [3] came to 8.94e-05 ± 1.4e-05 s⁻¹. Moreover, in data set [4], the “self-cleavage kobs at 10000 uM GlcN6P” value was 6.79e-05 ± 8.5e-06 s⁻¹.

AUAAAAGCGCCAGAACUACAGAAAUGUAGUUGACGAGGAGGAGGUUUGUCGAUUUUUCGGCGGAUGCCUCCAAA [A48G A53U]: the kcat in data set [1] amounted to 6.17e-05 ± 9.3e-06 s⁻¹. Also, the “self-cleavage kobs at 2500 uM GlcN6P” value in data set [3] was determined as 4.65e-05 ± 1.4e-05 s⁻¹. Also, the “self-cleavage kobs at 10000 uM GlcN6P” value in data set [4] stood at 5.16e-05 ± 7.9e-06 s⁻¹.

Consider AUAAAAGCGCCAGAACUACAGAAAUGUAGUUGACGAGGAGGAGGUUUCUCGAAUUGUCGGCGGAUGCCUCCAAA [A48C U56G], for which the kcat in data set [1] amounted to 0.000214 ± 2.7e-05 s⁻¹. In addition, in data set [5], the KM came out at 5.57 ± 1.3 mM. Moreover, the “self-cleavage kobs at 2500 uM GlcN6P” value in data set [3] came out at 6.9e-05 ± 1.3e-05 s⁻¹. Further, in data set [4], the “self-cleavage kobs at 10000 uM GlcN6P” value stood at 0.000135 ± 2.8e-05 s⁻¹.

Turning to AUAAAAGCGACAGAACUACAGAAAUGUAGUUGACGAGGAGGAGGUUUAUCGAAUUAUCGGCGGAUGCCUCCAAA [C10A U56A], in data set [1], the kcat is below 1e-05 s⁻¹. Moreover, in data set [4], the “self-cleavage kobs at 10000 uM GlcN6P” value is below 1e-05 s⁻¹.

For the variant AUAAAAGCGCCGGAACUACAGAAAUGUAGUUGACGAGGAGGAGGUUUGUCGAAUUUUCGGCGGAUGCCUCCAAA [A12G A48G], the kcat in data set [1] worked out at 2.09e-05 ± 3.3e-06 s⁻¹. The “self-cleavage kobs at 40 uM GlcN6P” value in data set [6] was below 1e-05 s⁻¹.

On to AUAAAAGCGCCAGAACUACAGAAAUGUAGUUGACGAGGAGGAGGUUUAUCGAAUUUUCGGCGGAUGGGUCCAAA [C67G C68G], for which, in data set [1], the catalytic constant (kcat) was 4.53e-05 ± 9.2e-06 s⁻¹. Also, the “self-cleavage kobs at 160 uM GlcN6P” value in data set [7] amounted to 6.2e-05 ± 7.7e-06 s⁻¹. Besides, the “self-cleavage kobs at 640 uM GlcN6P” value in data set [2] is 5.01e-05 ± 6.5e-06 s⁻¹. Also, the “self-cleavage kobs at 2500 uM GlcN6P” value in data set [3] was determined as 3.7e-05 ± 4.7e-06 s⁻¹.

As for AUAAAAGCGCCAGAACUACAGAAAUGUAGUUGACGAGGAGGUGGUUUAUCGAAUUUUCGGCGGAUGCCUGCAAA [A42U C70G], in data set [1], the kcat stood at 2.5e-05 ± 2e-06 s⁻¹. In data set [5], the KM is 0.979 ± 0.38 mM. The “self-cleavage kobs at 10000 uM GlcN6P” value in data set [4] came to 2.35e-05 ± 9.3e-06 s⁻¹.

For the variant AUAAAAGCGCCAGAACUACAGAAAUGUAGUUGACGAGGAGGAGGUUUAACGAAUUUUCGGCGGAUGCCUCAAAA [U49A C71A], the catalytic constant (kcat) in data set [1] was below 1e-05 s⁻¹.

In the case of AUAAAUGCGCCAGAACUACAGAAAUGUAGUUGACGAGCAGGAGGUUUAUCGAAUUUUCGGCGGAUGCCUCCAAA [A6U G38C], the kcat in data set [1] is below 1e-05 s⁻¹. Further, the KM in data set [5] stood at 3.58 ± 1 mM. Moreover, the “self-cleavage kobs at 40 uM GlcN6P” value in data set [6] is below 1e-05 s⁻¹. Moreover, in data set [7], the “self-cleavage kobs at 160 uM GlcN6P” value is below 1e-05 s⁻¹. For the same variant, the “self-cleavage kobs at 640 uM GlcN6P” value in data set [2] is below 1e-05 s⁻¹.

Consider AUAAAAGCGCCAGAACUACAGAAAUGUAGUUGACGAGGAGGAGGUUUAUCGAGUUUUCGGCGGAUGCAUCCAAA [A53G C68A], for which the turnover number (kcat) in data set [1] amounted to 5.55e-05 ± 7.9e-06 s⁻¹. Further, the “self-cleavage kobs at 160 uM GlcN6P” value in data set [7] was 5.86e-05 ± 1.5e-05 s⁻¹. Further, the “self-cleavage kobs at 640 uM GlcN6P” value in data set [2] was 6.08e-05 ± 1.2e-05 s⁻¹. In addition, the “self-cleavage kobs at 2500 uM GlcN6P” value in data set [3] worked out at 6.36e-05 ± 1e-05 s⁻¹. Moreover, in data set [4], the “self-cleavage kobs at 10000 uM GlcN6P” value is 4.54e-05 ± 7.8e-06 s⁻¹.

In the case of AUAAAAGCGCCAGAACUACAGAAAUGUAUUUGACGAGUAGGAGGUUUAUCGAAUUUUCGGCGGAUGCCGCCAAA [G29U G38U U69G], in data set [1], the kcat is 7.45e-05 ± 3.4e-05 s⁻¹. Moreover, the “self-cleavage kobs at 160 uM GlcN6P” value in data set [7] is 9.11e-05 ± 1.8e-05 s⁻¹. Besides, in data set [2], the “self-cleavage kobs at 640 uM GlcN6P” value stood at 0.00014 ± 6.1e-05 s⁻¹. For the same variant, the “self-cleavage kobs at 2500 uM GlcN6P” value in data set [3] is 0.000102 ± 4.6e-05 s⁻¹.

AUAAAAGCGCCAGAACUACAGAAAUGUAGUUCACGAGGAGGAGGUUUAUCGAAUUUUCGGCGGAUGCCUUCAAA [G32C C70U]: the catalytic constant (kcat) in data set [1] was determined as 0.000154 ± 1.4e-05 s⁻¹. In addition, in data set [5], the KM turned out to be 2.85 ± 0.8 mM. For the same variant, the “self-cleavage kobs at 640 uM GlcN6P” value in data set [2] amounted to 3.89e-05 ± 1.1e-05 s⁻¹. The “self-cleavage kobs at 2500 uM GlcN6P” value in data set [3] came to 6.52e-05 ± 1e-05 s⁻¹. For the same variant, the “self-cleavage kobs at 10000 uM GlcN6P” value in data set [4] was 0.000121 ± 7.5e-06 s⁻¹.

On to AUAAAAGCGCCAGAUCUACAGAAAUGUAGUUGACGAGGAGGAGGUUUAUCGAAUUCUCGGCGGAUGCCUCCAAA [A15U U56C], for which, in data set [1], the kcat stood at 0.00101 ± 4.2e-05 s⁻¹. In data set [5], the KM is 2.32 ± 0.15 mM. Moreover, in data set [7], the “self-cleavage kobs at 160 uM GlcN6P” value is 6.26e-05 ± 9.4e-06 s⁻¹. In addition, the “self-cleavage kobs at 640 uM GlcN6P” value in data set [2] worked out at 0.000221 ± 2.7e-05 s⁻¹. The “self-cleavage kobs at 2500 uM GlcN6P” value in data set [3] was 0.000551 ± 6.9e-05 s⁻¹. In addition, in data set [4], the “self-cleavage kobs at 10000 uM GlcN6P” value stood at 0.0008 ± 9.1e-05 s⁻¹.

AUAAAAGCGCCAGAACUACAGAAAUGUAGUUAACGAGGAUGAGGUUUAUCGAAUUUUCGGCGGAUGCCUCCAAA [G32A G40U]: the kcat in data set [1] was 0.00051 ± 0.0001 s⁻¹. In addition, in data set [5], the KM worked out at 3.9 ± 1.2 mM. Also, the “self-cleavage kobs at 640 uM GlcN6P” value in data set [2] turned out to be 7.8e-05 ± 9.2e-06 s⁻¹. The “self-cleavage kobs at 2500 uM GlcN6P” value in data set [3] was 0.000169 ± 2.5e-05 s⁻¹. Moreover, the “self-cleavage kobs at 10000 uM GlcN6P” value in data set [4] was found to be 0.000401 ± 5.6e-05 s⁻¹.

Take AUAAAAGCGCCAGGACUACAGAAAUGUAGUUGACGAGGAUGAGGUUUAUCGAAUUUUCGGCGGAUGCCUCCAAA [A14G G40U]: the kcat in data set [1] was 0.00991 ± 0.0013 s⁻¹. Moreover, the KM in data set [5] came out at 1.35 ± 0.25 mM. The “self-cleavage kobs at 40 uM GlcN6P” value in data set [6] is 0.000302 ± 4.1e-05 s⁻¹. Moreover, the “self-cleavage kobs at 160 uM GlcN6P” value in data set [7] worked out at 0.00117 ± 0.00023 s⁻¹. For the same variant, the “self-cleavage kobs at 640 uM GlcN6P” value in data set [2] is 0.00267 ± 0.00043 s⁻¹. For the same variant, the “self-cleavage kobs at 2500 uM GlcN6P” value in data set [3] amounted to 0.00713 ± 0.0011 s⁻¹. For the same variant, in data set [4], the “self-cleavage kobs at 10000 uM GlcN6P” value was 0.00879 ± 0.0013 s⁻¹.

As to AUAAAAGCGCCAGAACUACAGAAAUGUAGUUGACGAGGAGGAGGUUUAUCGAAUUUUCGGCGGACGCCUCGAAA [U65C C71G], the turnover number (kcat) in data set [1] stood at 4.3e-05 ± 1.5e-05 s⁻¹. Also, in data set [6], the “self-cleavage kobs at 40 uM GlcN6P” value is below 1e-05 s⁻¹. In addition, the “self-cleavage kobs at 2500 uM GlcN6P” value in data set [3] is 8.15e-05 ± 1.6e-05 s⁻¹. In addition, the “self-cleavage kobs at 10000 uM GlcN6P” value in data set [4] was 3.44e-05 ± 8.1e-06 s⁻¹.

As for AUAAAAGCGCCCGAACUACAGAAAUGUAGUUCACGAGGAGGAGGUUUAUCGAAUUUUCGGCGGAUGCCUCCAAA [A12C G32C], the kcat in data set [1] came to 2.92e-05 ± 1.3e-06 s⁻¹. Moreover, in data set [5], the KM is 3.26 ± 0.5 mM. Besides, the “self-cleavage kobs at 40 uM GlcN6P” value in data set [6] is below 1e-05 s⁻¹. Also, the “self-cleavage kobs at 10000 uM GlcN6P” value in data set [4] was determined as 2.2e-05 ± 6.6e-06 s⁻¹.

AUAAAAGCGCCGGAACUACAGAAAUGUAUUUGACGAGGAGGAGGUUUAUCGAAUUUUCGGCGGAUGCCUCCAAA [A12G G29U]: the kcat in data set [1] amounted to 0.000345 ± 2.6e-05 s⁻¹. In addition, in data set [5], the KM is 3.74 ± 0.44 mM. Besides, the “self-cleavage kobs at 640 uM GlcN6P” value in data set [2] was 5.19e-05 ± 7.9e-06 s⁻¹. The “self-cleavage kobs at 2500 uM GlcN6P” value in data set [3] was determined as 0.000134 ± 1.9e-05 s⁻¹. The “self-cleavage kobs at 10000 uM GlcN6P” value in data set [4] came to 0.000255 ± 4.1e-05 s⁻¹.

With AUAAAAGCGCCAGAACUACAGAAAUGUAGUUGACGCGGAGGAGGUUUAUCGAAUUUUCGGCGGAUGCAUCCAAA [A36C C68A], the kcat in data set [1] was determined as 1.33e-05 ± 2.1e-06 s⁻¹.

(Values after the supplement of paper PMC7125110.)
